Assay [1] deals with NLuc-US28-VUN103 (human cytomegalovirus (HCMV)) (UniProt P69332). Put plainly: FRET or BRET; BRET-based saturation binding of Alexa647-labeled chemokine (0.1 pM-10 nM) to 100 ng membranes with NLuc-US28 constructs; HBSS with 0.05% BSA, 1 h at RT, 10 µM furimazine.
Assay [2] has as its target NLuc-US28-Nb7 (human cytomegalovirus (HCMV)) (UniProt P69332). The assay is described as above.
Assay [3] has as its target NLuc-US28-Irr Nb (human cytomegalovirus (HCMV)) (UniProt P69332). Described as above.
Assay [4] deals with NLuc-US28 WT (human cytomegalovirus (HCMV)), P69332. The description is as above.
The target in assay [5] is T1, US28 wildtype (human cytomegalovirus (HCMV), UniProt P69332 1-354, Strain: VHL/E is stated for some constructs, but its sequence is neither printed nor among the candidates. The AD169 entry is used as the closest wild type, so a few strain-specific residues may diffe).
T1 chain: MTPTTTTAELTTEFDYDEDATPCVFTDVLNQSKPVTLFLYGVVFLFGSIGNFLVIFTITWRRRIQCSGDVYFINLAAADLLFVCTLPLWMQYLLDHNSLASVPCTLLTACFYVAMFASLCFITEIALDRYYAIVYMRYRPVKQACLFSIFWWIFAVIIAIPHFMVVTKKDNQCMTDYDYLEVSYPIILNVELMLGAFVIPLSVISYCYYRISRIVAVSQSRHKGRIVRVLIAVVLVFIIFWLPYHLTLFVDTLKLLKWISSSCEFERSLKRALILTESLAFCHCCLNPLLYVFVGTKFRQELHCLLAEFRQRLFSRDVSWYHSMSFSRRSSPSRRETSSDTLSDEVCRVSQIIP
Description: radioligand binding; as a1, displacement of 125I-CCL5, membranes of HEK293T cells co-expressing US28 WT and the intrabody VUN103-mVenus. The conditions noted are these: one partner purified.

Assay [6] concerns the target T1, US28 wildtype. Put plainly: radioligand binding; as a1, displacement of 125I-CCL5, membranes of HEK293T cells co-expressing US28 WT and the intrabody Nb7-mVenus. As to conditions: one partner purified.
In assay [7] the target is T1, US28 wildtype. Put plainly: radioligand binding; displacement of 100 pM 125I-CX3CL1 or 200 pM 125I-CCL5 from 3 µg US28-expressing membranes (no intrabody) by unlabeled ligand; HEPES binding buffer pH 7.4, 0.1 M NaCl, 0.5% BSA; 2 h at room temperature; GF/C filtration. As to conditions: one partner purified.

Turning to “CX3CL1-Alexa647 (from UniProt P78423 25-341) (ligand)”, the pKD in assay [1] came out at 9.6; in assay [2], 10.4; in assay [3] it was 9.6.

B1: CX3CL1-Alexa647, P78423 25-341 (ligand)
chain: QHHGVTKCNITCSKMTSKIPVALLIHYQQNQASCGKRAIILETRQHRLFCADPKEQWVKDAMQHLDRQAAALTRNGGTFEKQIGEVKPRTTPAAGGMDESVVLEPEATGESSSLEPTPSSQEAQRALGTSPELPTGVTGSSGTRLPPTPKAQDGGPVGTELFRVPPVSTAATWQSSAPHQPGPSLWAEAKTSEAPSTQDPSTQASTASSPAPEENAPSEGQRVWGQGQSPRPENSLEREEMGPVPAHTDAFQDWGPGSMAHVSVVPVSSEGTPSREPVASGSWTPKAEEPIHATMDPQRLGVLITPVPDAQAATRRQ
modifications: here or on the partner: Alexa Fluor 647 label
The molecule B1 showed a pKD in assay [4] of 9.6.

B2: CX3CL1 (unlabeled) (ligand, UniProt P78423 25-341, looked up)
chain: B1 chain
notes: CX3CL1 (fractalkine), chemokine ligand of US28; also called fractalkine; source: bought: PeproTech (stated for the BRET assays)
For the molecule B2, the values for the negative-log Ki (pKi) with US28 wildtype [5], with US28 wildtype [6] and in the assay with US28 wildtype [7] were 9.7, 10.7 and 9.9, respectively.
